According to patent US20100209424A1:

Tests used:
[1] = target: human FcRn (GFP-hFcRn construct lacking the endosomal targeting domain, expressed on the plasma membrane of human 293 cells) (human) (UniProt P55899); test: flow cytometry competition against hIgG-Alexa Fluor 647 (40 µg/ml) on 293 cells expressing GFP-hFcRn, pH 5.8
[2] = target: human FcRn (GFP-hFcRn construct lacking the endosomal targeting domain, expressed on the plasma membrane of human 293 cells) (human) (UniProt P55899); test: flow cytometry competition against hIgG-Alexa Fluor 647 on 293 cells expressing GFP-hFcRn, pH 5.8

Chain of UniProt P55899 (P55899 24-321): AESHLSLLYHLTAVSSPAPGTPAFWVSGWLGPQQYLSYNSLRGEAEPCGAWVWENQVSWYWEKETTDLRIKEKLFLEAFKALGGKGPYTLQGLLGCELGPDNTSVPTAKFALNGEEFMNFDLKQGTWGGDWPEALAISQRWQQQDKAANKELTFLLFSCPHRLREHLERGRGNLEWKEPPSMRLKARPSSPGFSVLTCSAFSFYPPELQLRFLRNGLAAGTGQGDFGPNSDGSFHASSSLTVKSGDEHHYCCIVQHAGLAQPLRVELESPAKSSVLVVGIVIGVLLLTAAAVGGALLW

IC50 [1] [µM]	fold decrease of IC50 against unconjugated hIgG [2] [fold]	Substance
5.4	2	biotinylated human immunoglobulin G (hIgG-biotin) (antibody)
11.4	–	human immunoglobulin G (hIgG), unconjugated (antibody)
